For this assay, the target named is CK2α with para-azidophenylalanine at Tyr239 coupled with DBCO-Sulfo-Cy5 (Homo sapiens) (UniProt P68400). As to the kind of experiment: MST; 0.1526 to 5,000 nM GST cleaved CK2β titrated to 30 nM Cy5-labelled CK2α; 50 mM Tris-HCl (pH 8), 500 mM NaCl, 500 μM CaCl2, 0.05% Tween 20, 0.5% (v/v) DMSO; 25 °C; Monolith NT.115.

As a reminder, the Kd is the concentration at which binding is half-saturated. The low end stands for a tighter complex, the high end for a looser complex. In turn, “casein kinase II subunit beta (CK2β) NP_001311.3; p.Asp32His, GST cleaved (from UniProt P67870 1-215) (natural protein)” returned a dissociation constant (Kd) of 15.8 nM.
The substance “casein kinase II subunit beta (CK2β), wild type, GST cleaved (from UniProt P67870 1-215) (natural protein)” displayed a Kd of 12.9 nM.

For the origin of these results see paper PMC9092267.
